Test results taken from US20060134087A1, “ITI-D1 Kunitz domain mutants as hNE inhibitors” (Dyax Corp., priority 1988, published 2006).
Entries after “also recorded” stand apart in the source; their conditions may differ. Read-outs that look alike come from different tables or passages of the source.

Experiments:
[1] = target: T1, Elastase (porcine pancreas) (Sus scrofa, UniProt P00772); settings: BPTI P1 derivatives, cited from earlier work
T1 construct: host or cells: porcine pancreas

hCG = target: T2, hCG (Homo sapiens, UniProt P08311); settings: cited from earlier work
T2 sequence (P08311 21-255): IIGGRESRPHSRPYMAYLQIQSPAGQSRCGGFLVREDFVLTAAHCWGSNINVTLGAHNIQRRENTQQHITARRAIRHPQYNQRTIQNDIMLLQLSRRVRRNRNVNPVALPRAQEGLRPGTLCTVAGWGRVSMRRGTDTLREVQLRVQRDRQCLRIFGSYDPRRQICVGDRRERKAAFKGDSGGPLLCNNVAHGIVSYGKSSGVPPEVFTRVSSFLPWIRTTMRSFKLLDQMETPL

hNE [2] = target: T3, hNE (Homo sapiens, UniProt P08246); test: Temperature stability, residual inhibitory activity for hNE; format: physicochemical; set-up: Residual hNE Inhibitory Activity: unit not given here; settings: for Residual hNE Inhibitory Activity: 18 hours, pH 7.0, 1 μM protein; for temperature below which full inhibitory activity is maintained: thirty minutes, 1 μM, phosphate buffer pH=7
T3 sequence (P08246 30-267): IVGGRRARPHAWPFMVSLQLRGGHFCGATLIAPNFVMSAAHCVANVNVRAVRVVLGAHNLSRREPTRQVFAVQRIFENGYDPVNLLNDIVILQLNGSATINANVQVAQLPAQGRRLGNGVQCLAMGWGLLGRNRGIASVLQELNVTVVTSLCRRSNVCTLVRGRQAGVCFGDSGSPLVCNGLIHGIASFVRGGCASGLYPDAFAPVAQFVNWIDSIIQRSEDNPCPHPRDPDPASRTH
Protocol: The stability of EPI-HNE proteins to temperatures in the range 0° C. to 95° C. was assessed by incubating the inhibitors for thirty minutes at various temperatures and determining residual inhibitory activity for hNE. In these experiments, protein concentrations were 1 μM in phosphate buffer at pH=7. As is shown in Table 40, the four inhibitors are quite temperature stable.
Proteins were incubated at the stated temperature for 18 hours in buffer at pH 7.0. In all cases protein concentrations were 1 μM. At the end of the incubation period, aliquots of the reactions were diluted and residual hNE-inhibition activity determined.

hNE [3] = target: T3, hNE; test: pH stability, residual hNE inhibitory activity; format: physicochemical; settings: 37° C., 18 hours; for pH stability: pH 1 to pH 10, 1 μM; for Percent Residual hNE Inhibitory Activity: 1 μM protein
Protocol: The stability of the proteins to exposure to pH conditions in the range of pH 1 to pH 10 was assessed by maintaining the inhibitors in buffers of defined pH at 37° C. for 18 hours and determining the residual hNE inhibitory activity in the standard hNE-inhibition assay. Proteins were incubated at a concentration of 1 μM. The buffers shown in Table 4 were formulated as described (STOL90) and used in the pH ranges indicated: […]
Proteins were incubated at 37° C. for 18 hours in buffers of defined pH (see text). In all cases protein concentrations were 1 μM. At the end of the incubation period, aliquots of the reactions were diluted and residual hNE-inhibition activity determined.

hNE [4] = target: T3, hNE; test: Kinetic on-rate of inhibitors reacting with hNE (progressive inhibition); format: biochemical; settings: for kon: [hNE] = 8.47 × 10^−10 molar; for koff: calculated from koff = KD × kon
Protocol: The kinetic on-rates for the inhibitors reacting with hNE (kon) were determined from measurements of progressive inhibition of substrate hydrolytic activity by hNE following addition of inhibitor. For these experiments, a known concentration of inhibitor was added to a solution of hNE (0.847 nM) and substrate (25 μM) in 2 ml of reaction buffer in a plastic fluorescence cuvette. The change in fluorescence was recorded continuously following addition of the inhibitor. […] The enzymatic rate at selected times following addition of the inhibitor was determined from the slope of the tangent to the fluorescence time course at that time.
The kinetic constant kon for EPI-HNE-2 reacting with hNE was determined as follows. EPI-HNE-2 at 1.3 nM was added to buffer containing 0.867 nM hNE (I:E=1.5:1) at time 0. Measured percent residual activity was recorded as a function of time after addition of inhibitor. A least-squares fit program was used to obtain the value of kon=4.0×10^6 M^−1s^−1.
The kinetic off rate, koff, is calculated from the measured values of Ki and kon as: […] The values from such measurements are included in Table 30. The EPI-HNE proteins are small, high affinity, fast acting inhibitors of hNE. B. Specificity.

hNE [5] = target: T3, hNE; test: Resistance to oxidative inactivation by Chloramine-T, residual hNE-inhibition activity; format: physicochemical; settings: for Percent Residual hNE-Inhibitory Activity: 20 minutes at RT
Protocol: At the end of the incubation period, the oxidation reactions were quenched by adding methionine to a final concentration of 4 mM. After a further 10 minute incubation, the quenched reactions were diluted and assayed for residual inhibitor activity in our standard hNE-inhibition assay.
Inhibitors were incubated in the presence of Chloramine-T at the molar ratios indicated for 20 minutes at RT. Oxidation reactions were quenched by adding methionine to a final concentration of 4 mM. Residual hNE-inhibition activity remaining in the quenched reactions is shown as a percentage of the activity observed with no added oxidant.

[6] = target: T4, Elastase (human leukocytes) (Homo sapiens, UniProt P08246); settings: BPTI P1 derivatives; read-out: Dissociation constant; cited from earlier work
T4 construct: host or cells: human leukocytes
T4 sequence (P08246 30-267): T3 sequence (P08246 30-267)

[7] = target: T5, Chymotrypsin (bovine pancreas) (Bos taurus, UniProt P00766); settings: BPTI P1 derivatives; read-out: Dissociation constant (symbol); cited from earlier work
T5 construct: host or cells: bovine pancreas

[8] = target: T6, Trypsin (bovine pancreas) (Bos taurus, UniProt P00760); settings: BPTI P1 derivatives; read-out: Dissociation constant (symbol); cited from earlier work
T6 construct: host or cells: bovine pancreas
T6 sequence (P00760 24-246): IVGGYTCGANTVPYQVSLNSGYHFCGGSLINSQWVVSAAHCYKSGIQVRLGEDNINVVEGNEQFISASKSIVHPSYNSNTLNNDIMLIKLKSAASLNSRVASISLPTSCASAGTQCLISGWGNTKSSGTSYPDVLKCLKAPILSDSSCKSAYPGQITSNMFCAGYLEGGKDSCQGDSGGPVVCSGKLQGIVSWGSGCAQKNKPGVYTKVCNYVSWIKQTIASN

[9] = read-out: Dissociation constant

T1 sequence (P00772 27-266): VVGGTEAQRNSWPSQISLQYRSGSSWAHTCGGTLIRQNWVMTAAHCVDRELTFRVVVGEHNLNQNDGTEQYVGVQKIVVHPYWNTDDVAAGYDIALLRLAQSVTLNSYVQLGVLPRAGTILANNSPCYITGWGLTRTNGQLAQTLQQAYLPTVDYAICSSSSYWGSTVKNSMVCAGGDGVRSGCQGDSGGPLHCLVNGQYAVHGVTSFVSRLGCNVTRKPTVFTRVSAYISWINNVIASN

Substance | Residual hNE Inhibitory Activity (hNE [2]; Temperature 0 ° C.) | Residual hNE Inhibitory Activity (hNE [2]; Temperature 23 ° C.) | Residual hNE Inhibitory Activity (hNE [2]; Temperature 37 ° C.) | Residual hNE Inhibitory Activity (hNE [2]; Temperature 55 ° C.) | Residual hNE Inhibitory Activity (hNE [2]; Temperature 85 ° C.) | Residual hNE Inhibitory Activity (hNE [2]; Temperature 95 ° C.) | temperature below which full inhibitory activity is maintained (hNE [2]) | pH stability (hNE [3]) | Percent Residual hNE Inhibitory Activity (hNE [3]; Incubation pH 1.0) [%] | Percent Residual hNE Inhibitory Activity (hNE [3]; Incubation pH 2.0) [%] | Percent Residual hNE Inhibitory Activity (hNE [3]; Incubation pH 3.0) [%] | Percent Residual hNE Inhibitory Activity (hNE [3]; Incubation pH 4.0) [%] | Percent Residual hNE Inhibitory Activity (hNE [3]; Incubation pH 6.0) [%] | Percent Residual hNE Inhibitory Activity (hNE [3]; Incubation pH 7.0) [%] | Percent Residual hNE Inhibitory Activity (hNE [3]; Incubation pH 8.0) [%] | Percent Residual hNE Inhibitory Activity (hNE [3]; Incubation pH 9.4) [%] | Percent Residual hNE Inhibitory Activity (hNE [3]; Incubation pH 10.0) [%] | kon (hNE [4]) | koff (hNE [4]) | Percent Residual hNE-Inhibitory Activity (hNE [5]; Molar Ratio CHL-T:Inhibitor 0) [%] | further results
Bovine pancreatic trypsin inhibitor [BPTI] |  |  |  |  |  |  |  |  |  |  |  |  |  |  |  |  |  |  |  |  | Kd ([1]; read-out: Dissociation constant (symbol)): > 3500 nM; inhibition of Cathepsin-G (hCG; SWAI88, ODOM90): lacks; binding of hCG (hCG): does not significantly bind hCG
EPI-HNE-1: BPTI-derived Kunitz domain, SEQ ID NO 007; K15I, R17F, I18F, I19P, R39M, A40G, K41N, R42G | 97 | 100 | 100 | 99 | 106 | 64 | below 90 °C | stable at all pH values tested | 102 | 100 | 100 | 98 | 100 | 93 | 96 | 100 | 98 | 3.7 10^6/M/s | 7.4 10^−6/s | 100 | Residual hNE Inhibitory Activity (hNE [2]; Temperature 45 ° C.): 103; Residual hNE Inhibitory Activity (hNE [2]; Temperature 65 ° C.): 94; Residual hNE Inhibitory Activity (hNE [2]; Temperature 75 ° C.): 100; Percent Residual hNE Inhibitory Activity (hNE [3]; Incubation pH 2.6): 101%; Percent Residual hNE Inhibitory Activity (hNE [3]; Incubation pH 5.0): 100%; Percent Residual hNE-Inhibitory Activity (hNE [5]; Molar Ratio CHL-T:Inhibitor 1.4): 98%; Percent Residual hNE-Inhibitory Activity (hNE [5]; Molar Ratio CHL-T:Inhibitor 1.9): 102%; Percent Residual hNE-Inhibitory Activity (hNE [5]; Molar Ratio CHL-T:Inhibitor 3.8): 94%; Percent Residual hNE-Inhibitory Activity (hNE [5]; Molar Ratio CHL-T:Inhibitor 9.5): 95%; Percent Residual hNE-Inhibitory Activity (hNE [5]; Molar Ratio CHL-T:Inhibitor 19.): 92%; Percent Residual hNE-Inhibitory Activity (hNE [5]; Molar Ratio CHL-T:Inhibitor .48): 102%; Percent Residual hNE-Inhibitory Activity (hNE [5]; Molar Ratio CHL-T:Inhibitor .95): 100%
EPI-HNE-4: EPI-HNE-3 with substitution A3E; SEQ ID NO 027 (EACNLPIVRGPCIAFFPRWAFDAVKGKCVLFPYGGCQGNGNKFYSEKECREYCGVP; Epi-HNE-4) | 100 | 103 | 98 | 98 | 63 | 48 | below 65 °C | stable when incubated at low pH, but showed some loss of activity at high pH; also recorded: retains almost full activity to pH 8.5 | 98 | 100 | 96 | 94 | 99 | 93 | 83 | 40 | 34 | 10.6 10^6/M/s | 49. 10^−6/s | 100 | Residual hNE Inhibitory Activity (hNE [2]; Temperature 69 ° C.): 82; Percent Residual hNE Inhibitory Activity (hNE [3]; Incubation pH 5.5): 109%; Percent Residual hNE Inhibitory Activity (hNE [3]; Incubation pH 6.5): 100%; Percent Residual hNE Inhibitory Activity (hNE [3]; Incubation pH 7.5): 109%; Percent Residual hNE Inhibitory Activity (hNE [3]; Incubation pH 8.5): 86%; Percent Residual hNE-Inhibitory Activity (hNE [5]; Molar Ratio CHL-T:Inhibitor 1.0): 100%; Percent Residual hNE-Inhibitory Activity (hNE [5]; Molar Ratio CHL-T:Inhibitor 3.0): 100%; Percent Residual hNE-Inhibitory Activity (hNE [5]; Molar Ratio CHL-T:Inhibitor 5.0): 100%; Percent Residual hNE-Inhibitory Activity (hNE [5]; Molar Ratio CHL-T:Inhibitor 10.): 104%; Percent Residual hNE-Inhibitory Activity (hNE [5]; Molar Ratio CHL-T:Inhibitor 30.): 100%; Percent Residual hNE-Inhibitory Activity (hNE [5]; Molar Ratio CHL-T:Inhibitor 50.): 100%; Percent Residual hNE-Inhibitory Activity (hNE [5]; Molar Ratio CHL-T:Inhibitor .50): 100%; hNE-inhibition activity after exposure to Chloramine-T (hNE [5]; all molar ratios tested (up to 50:1 for EPI-HNE-3 and EPI-HNE-4)): retain essentially complete hNE-inhibition activity
alanine |  |  |  |  |  |  |  |  |  |  |  |  |  |  |  |  |  |  |  |  | Kd [6]: 2.5 nM; Kd [7]: > 3500 nM; Kd [8]: ≥ 3500 nM; Kd [1, 9]: 28 nM
valine |  |  |  |  |  |  |  |  |  |  |  |  |  |  |  |  |  |  |  |  | Kd [6]: 0.11 nM; Kd [7]: > 3500 nM; Kd [8]: > 3500 nM; Kd [1, 9]: 57 nM
